Results from patent US20180186871A1 (SINGAPORE HEALTH SERVICES PTE, published 2018).
Positions count from the first letter of the chain named.

B1: YU100-G07 (scFv)
scFv: QVQLVESGGGVVQPGRSLRLSCAASGFTFSSYGMHWVRQAPGKGLEWVAVISYDGSNKYYADSVKGRFTISRDNSKNTLYLQMNSLRAEDTAVYYCAKIGATDPLDYWGQGTLVTVSSGSASAPKLEEGEFSEARVQSALTQPASVSGSPGQSITISCTGTSSDVGAYDYVSWYQQHPGKAPKLMIYDVTNRPSGVSNRFSGSKSGNTASLTISGLQAEDEADYYCASYTRSSVWVFGGGTKLTVL
B2: YU112-C03 (scFv, not shown: a dimerising Fc or GST)
scFv: QVQLVESGGGVVQPGRSLRLSCAASGFTFSSYGMHWVRQAPGKGLEWVAVISYDGSNKYYADSVKGRFTISRDNSKNTLYLQMNSLRAEDTAVYYCAKGGKSYYGFDYWGQGTLVTVSSGSASAPKLEEGEFSEARVDSVMTQSPSSLSASVGDRVTITCRASQAINSYLNWYQQKPGKAPKLLIYAASSLQSGVPSRFSGSGSGTDFTLTISGLQPEDFATYYCQQSYSTPSWTFGQGTKVEIK
B3: YU112-F05 (scFv)
scFv: EVQLVQSGGGVVQPGRSLRLSCAASGFTFGSYGMHWVRQAPGKGLEWVAVISYDGSNKYYADSVKGRFTISRDNSKNTLYLQMNSLRAEDTAVYYCAKIGATDPLDYWGQGTLVTVSSGSASAPKLEEGEFSEARVQSALTQPRSVSGSPGQSVTISCTGTSSDVGGYNYVSWYQQHPGKAPKLIIYDVNNRPSGVSNRFSASKSGNTASLTISGLQAEDEADYYCNSYTSGSTWVFGGGTKLTVL
B4: YU112-H01 (scFv)
scFv: QVQLVESGGGVVQPGRSLRLSCAASGFTFGSYGMHWVRQAPGKGLEWVAVISYDGSNKYYADSVKGRFTISRDNSKNTLYLQMNSLRAEDTAVYYCAKGSYYFDYWGQGTLVTVSSGSASAPKLEEGEFSEARVETTLTQSPGTLSLSPGERATLSCRASQSVSSSYLAWYQQKPGQAPRLLIYGASSRATGIPDRFSGSGSGTDFTLTISSLQPDDFATYYCQQSYSTPTWTFGQGTKVEIK
B5: YU112-H02 (scFv)
scFv: QVQLVESGGGVVQPGRSLRLSCAASGFTFSSYGMHWVRQAPGKGLEWVAVISYDGSNKYYADSVKGRFTISRDNSKNTLYLQMNSLRAEDTAVYYCAKLSGPNGVDYWGQGTLVTVSSGSASAPKLEEGEFSEARVQPVLTQPRSVSGSPGQSVTISCTGTSSDVGGYNYVSWYQQHPGKAPKVMIYDVSKRPSGVPDRFSGSKSGNTASLTISGLQAEDEADYYCCSYAGSYTWVFGGGTKLTVL
B6: YU100-A10 (scFv)
scFv: EVQLVESGGGVVQPGRSLRLSCAASGFTFSSYGMHWVRQAPGKGLEWVAVISYDGSNKYYADSVKGRFTISRDNSKNTLYLQMNSLRAEDTAVYYCAKIGATDPLDYWGQGTLVTVSSGSASAPKLEEGEFSEARVLPVLTQPASVSGSPGQSITISCTGTSSDVGAYNYVSWYQQHPGKAPELMIYDVSNRPSGVSNRFSGSKSGNTASLTISGLQPEDEADYYCSSFTTSIAWVFGGGTKLTVL
B7: YU100-B08 (scFv)
scFv: EVQLVQSGGGVVQPGRSLRLSCAASGFTFSSYGMHWVRQAPGKGLEWVAVISYDGSNKYYADSVKGRFTISRDNSKNTLYLQMNSLRAEDTAVYYCAKIGATDPLDYWGQGTLVTVSSGSASAPKLEEGEFSEARVQSALTQPASVSGSPGQSITISCTGTSSDVGGYNYVSWYQQHPGKVPRLLIYDVSNRPSGVSTRFSGSKSGNTASLTISGLQGEDEAEYYCSSFTSSTTWVFGGGTKLTVL
B8: YU100-E05 (scFv)
scFv: EVQLVQSGGGVVQPGRSLRLSCAASGFTFSSYGMHWVRQAPGKGLEWVAVISYDGSNKYYADSVKGRFTISRDNSKNTLYLQMNSLRAEDTAVYYCAKIGATDPLDYWGQGTLVTVSSGSASAPKLEEGEFSEARVQAVLTQPRSVSGSPGQSVTISCTGTSSDVGGYNYVSWYQQHPGKAPKLMIYDVSKRPSGVPDRFSGSKSGNTASLTISGLQAEDEADYYCCSYAGSYSWVFGGGTKLTVLGQPKAAPSVTLFPPSS
B9: YU100-D02 (scFv)
scFv: B8 scFv with E1Q, Q3R, A138S, V139A, S163G, G167T, Y187F, C227N, S234T
B10: YU100-D05 (scFv)
scFv: QVQLQQSGGGVVQPGRSLRLSCAASGFTFSSYGMHWVRQAPGKGLEWVAVISYDGSNKYYADSVKGRFTISRDNSKNTLYLQMNSLRAEDTAVYYCAKIGATDPLDYWGQGTLVTVSSGSASAPKLEEGEFSEARVQSALTQPASVSGSPGQLITISCTGTNSDVGGYNYVSWYQQHPGKAPKLMIYDVSNRPSGVSNRFSGSKSGNTASLTISGLQAEDEADYYCCSYAGSYTWVFGGGTKLTVLGQPKAAPSVTLFPPSS
B11: YU100-D11 (scFv)
scFv: B8 scFv with E1Q, A138S, V139A, D164N, D223N, C227A, S232N, S234N
B12: YU100-E04 (scFv)
scFv: B8 scFv with E1Q, V5Q, A138S, V139A, A181T, S190T, R199H, Y233H, S234I
B13: YU100-E01 (scFv)
scFv: QVQLQQSGGGVVQPGRSLRLSCAASGFTFSSYGMHWVRQAPGKGLEWVAVISYDGSNKYYADSVKGRFTISRDNSKNTLYLQMNSLRAEDTAVYYCAKIGATDPLDYWGQGTLVTVSSGSASAPKLEEGEFSEARVQSALTQPASVSGSPGQSITISCTGTSNDIGAYNYVSWYQQHPGKAPKLLIYDVNNRPSGVSDRFSGSKSGNTASLTISGLQAEDEADYYCCSYAGSYSWVFGGGTKLTVLGQPKANPTVTLFPPSS

Biological target: T1, human IL-11 (human, UniProt P20809 22-199)
T1 sequence (looked up): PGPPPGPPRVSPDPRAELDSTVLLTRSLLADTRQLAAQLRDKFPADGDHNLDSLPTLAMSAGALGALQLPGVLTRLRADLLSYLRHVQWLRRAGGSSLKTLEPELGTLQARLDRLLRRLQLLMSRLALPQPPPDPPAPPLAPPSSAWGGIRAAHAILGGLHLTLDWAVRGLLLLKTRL
Assay: cell-based or functional assay
Also: test concentration or dose not given here.

Q: For B1, which “MMP2 production (ng/ml), TGFB1-stimulated human atrial fibroblasts, Experiment 1 (NEG 42.7, POS 70.2)” value (“MMP2 production (ng/ml) … (NEG 42.7, POS 70.2)” for short) is on record?
A: The value was 59 ng/mL.

Q: And the “MMP2 production (ng/ml), TGFB1-stimulated human atrial fibroblasts, Experiment 2 (NEG 36.2, POS 62.3)” value (“MMP2 production (ng/ml) … (NEG 36.2, POS 62.3)” for short)?
A: Its value is 49.7 ng/mL.

Q: B2 was tested. Which “MMP2 production (ng/ml) … (NEG 42.7, POS 70.2)” value did it give?
A: The value was 57.6 ng/mL.

Q: What about the “MMP2 production (ng/ml) … (NEG 36.2, POS 62.3)” value of the same binder?
A: Its value is 53.3 ng/mL.

Q: Which “MMP2 production (ng/ml) … (NEG 42.7, POS 70.2)” value does the source give for B3 here?
A: Its value is 53.9 ng/mL.

Q: And the “MMP2 production (ng/ml) … (NEG 36.2, POS 62.3)” value?
A: Its value is 48.5 ng/mL.

Q: B4 was tested. Which “MMP2 production (ng/ml) … (NEG 42.7, POS 70.2)” value did it give?
A: Its value is 51.9 ng/mL.

Q: And the “MMP2 production (ng/ml) … (NEG 36.2, POS 62.3)” value?
A: Its value is 47.7 ng/mL.

Q: With B5 as the binder, how does the “MMP2 production (ng/ml) … (NEG 42.7, POS 70.2)” value read?
A: The value was 65.3 ng/mL.

Q: And the “MMP2 production (ng/ml) … (NEG 36.2, POS 62.3)” value?
A: Its value is 58 ng/mL.

Q: Which “MMP2 production (ng/ml) … (NEG 42.7, POS 70.2)” value does the source give for B6 here?
A: The value was 52.1 ng/mL.

Q: What about the “MMP2 production (ng/ml) … (NEG 36.2, POS 62.3)” value of the same binder?
A: The value was 50.1 ng/mL.

Q: Which results are given for B7?
A: MMP2 production (ng/ml), TGFB1-stimulated human atrial fibroblasts, Experiment 1 (NEG 42.7, POS 70.2): 55.3 ng/mL; MMP2 production (ng/ml), TGFB1-stimulated human atrial fibroblasts, Experiment 2 (NEG 36.2, POS 62.3): 40.6 ng/mL

Q: How did the “MMP2 production (ng/ml) … (NEG 42.7, POS 70.2)” value turn out when B8 was run?
A: Its value is 56.3 ng/mL.

Q: And the “MMP2 production (ng/ml) … (NEG 36.2, POS 62.3)” value?
A: The value was 50.2 ng/mL.

Q: B9 was tested. Which “MMP2 production (ng/ml) … (NEG 42.7, POS 70.2)” value did it give?
A: The value was 49.6 ng/mL.

Q: What about the “MMP2 production (ng/ml) … (NEG 36.2, POS 62.3)” value of the same binder?
A: The value was 42.2 ng/mL.

Q: How did the “MMP2 production (ng/ml) … (NEG 42.7, POS 70.2)” value turn out when B10 was run?
A: Its value is 53.3 ng/mL.

Q: And the “MMP2 production (ng/ml) … (NEG 36.2, POS 62.3)” value?
A: The value was 48.8 ng/mL.

Q: Which “MMP2 production (ng/ml) … (NEG 42.7, POS 70.2)” value does the source give for B11 here?
A: Its value is 51.2 ng/mL.

Q: What about the “MMP2 production (ng/ml) … (NEG 36.2, POS 62.3)” value of the same binder?
A: Its value is 47.2 ng/mL.

Q: How did the “MMP2 production (ng/ml) … (NEG 42.7, POS 70.2)” value turn out when B12 was run?
A: Its value is 50 ng/mL.

Q: What about the “MMP2 production (ng/ml) … (NEG 36.2, POS 62.3)” value of the same binder?
A: Its value is 43.5 ng/mL.

Q: B13 was tested. Which “MMP2 production (ng/ml) … (NEG 42.7, POS 70.2)” value did it give?
A: The value was 59.3 ng/mL.

Q: And the “MMP2 production (ng/ml) … (NEG 36.2, POS 62.3)” value?
A: Its value is 51.8 ng/mL.
